To fix the notation:
B1: Tumor protein p73, residues 487 to 549; numbered along this chain, O15350 (parent)
chain: YHADPSLVSFLTGLGCPNCIEYFTSQGLQSIYHLQNLTIEDLGALKIPEQYRMTIWRGLQDLK

± gives the uncertainty stated by the source.

This data set covers variants of B1. As to the kind of experiment: abundance fitness (aPCA) (normalised: wild type 0, dead -1); higher = more abundant; growth selection in yeast, the domain comes from the species named. The following applies: Homo sapiens.
For the variant YHADPSLVSFLTGLGCPNCIEYFTSQGLQSIYHLQNLTIEDLGALKIPEQYRMTIWRGHQDLK [L59H], the abundance fitness was -0.801 ± 0.18.
Under YHADPSLVSFLTGLGCPNCIEYFTSQGLQSIYHLQNLTIEDLGALKIPEQYRMTIWRGTQDLK [L59T] stands -0.157 ± 0.05; under YHADPSLVSFLTGLGCPNCIEYFTSQGLQSIYHLQNLTIEDLGALKIPEQYRMTIWRGVQDLK [L59V], 0.046 ± 0.056.
Under YHADPSLVSFLTGLGCPNCIEYFTSQGLQSIYHLQNLTIEDLGALKIPEQYRMTIWRGRQDLK [L59R] stands -0.733 ± 0.063; under YHADPSLVSFLTGLGCPNCIEYFTSQGLQSIYHLQNLTIEDLGALKIPEQYRMTIWRGYQDLK [L59Y], -0.097 ± 0.12.
For YHADPSLVSFLTGLGCPNCIEYFTSQGLQSIYHLQNLTIEDLGALKIPEQYRMTIWRGEQDLK [L59E] the value was -0.95 ± 0.16.
Turning to YHADPSLVSFLTGLGCPNCIEYFTSQGLQSIYHLQNLTIEDLGALKIPEQYRMTIWRGSQDLK [L59S], the abundance fitness is -0.265 ± 0.039.
For YHADPSLVSFLTGLGCPNCIEYFTSQGLQSIYHLQNLTIEDLGALKIPEQYRMTIWRGNQDLK [L59N] the value was -0.631 ± 0.13; for YHADPSLVSFLTGLGCPNCIEYFTSQGLQSIYHLQNLTIEDLGALKIPEQYRMTIWRGKQDLK [L59K], -0.561 ± 0.11.
On to YHADPSLVSFLTGLGCPNCIEYFTSQGLQSIYHLQNLTIEDLGALKIPEQYRMTIWRGLQDYK [L62Y], for which the abundance fitness amounted to 0.008 ± 0.087.
Turning to YHADPSLVSFLTGLGCPNCIEYFTSQGLQSIYHLQNLTIEDLGALKIPEQYRMTIWRGLQDFK [L62F], the abundance fitness was -0.059 ± 0.053.
Take YHADPSLVSFLTGLGCPNCIEYFTSQGLQSIYHLQNLTIEDLGALKIPEQYRMTIWRGLQDIK [L62I]: the abundance fitness was -0.044 ± 0.07.
As to YHADPSLVSFLTGLGCPNCIEYFTSQGLQSIYHLQNLTIEDLGALKIPEQYRMTIWRGLQDAK [L62A], the abundance fitness was -0.104 ± 0.045.
For YHADPSLVSFLTGLGCPNCIEYFTSQGLQSIYHLQNLTIEDLGALKIPEQYRMTIWRGLQDEK [L62E] the value was -0.007 ± 0.038; for YHADPSLVSFLTGLGCPNCIEYFTSQGLQSIYHLQNLTIEDLGALKIPEQYRMTIWRGLQDVK [L62V], -0.007 ± 0.033; for YHADPSLVSFLTGLGCPNCIEYFTSQGLQSIYHLQNLTIEDLGALKIPEQYRMTIWRGLQDNK [L62N], 0.058 ± 0.088.
On to YHADPSLVSFLTGLGCPNCIEYFTSQGLQSIYHLQNLTIEDLGALKIPEQYRMTIWRGLQDPK [L62P], for which the abundance fitness was -0.032 ± 0.058.
As to YHADPSLVSFLTGLGCPNCIEYFTSQGLQSIYHLQNLTIEDLGALKIPEQYRMTIWRGLQDWK [L62W], the abundance fitness came to 0.071 ± 0.039.
Regarding YHADPSLVSFLTGLGCPNCIEYFTSQGLQSIYHLQNLTIEDLGALKIPEQYRMTIWRGLQDKK [L62K], the abundance fitness was -0.257 ± 0.08.
In the case of YHADPSLVSFLTGLGCPNCIEYFTSQGLQSIYHLQNLTIEDLGALKIPEQYRMTIWRGLQDCK [L62C], the abundance fitness is -0.117 ± 0.095.
Regarding YHADPSLVSFLTGLGCPNCIEYFTSQGLQSIYHLQNLTIEDLGALKIPEQYRMTIWRGLQDSK [L62S], the abundance fitness is -0.083 ± 0.036.
For YHADPSLVSFLTGLGCPNCIEYFTSQGLQSIYHLQNLTIEDLGALKIPEQYRMTIWRGLQFLK [D61F] the value was -0.572 ± 0.25.
For YHADPSLVSFLTGLGCPNCIEYFTSQGLQSIYHLQNLTIEDLGALKIPEQYRMTIWRGLQLLK [D61L], the abundance fitness was -0.087 ± 0.041.
For YHADPSLVSFLTGLGCPNCIEYFTSQGLQSIYHLQNLTIEDLGALKIPEQYRMTIWRGLQHLK [D61H] the value was 0.039 ± 0.088; for YHADPSLVSFLTGLGCPNCIEYFTSQGLQSIYHLQNLTIEDLGALKIPEQYRMTIWRGLQRLK [D61R], -0.066 ± 0.034.
Take YHADPSLVSFLTGLGCPNCIEYFTSQGLQSIYHLQNLTIEDLGALKIPEQYRMTIWRGLQMLK [D61M]: the abundance fitness was -0.002 ± 0.053.
For YHADPSLVSFLTGLGCPNCIEYFTSQGLQSIYHLQNLTIEDLGALKIPEQYRMTIWRGLQALK [D61A], the abundance fitness was -0.136 ± 0.039.
For YHADPSLVSFLTGLGCPNCIEYFTSQGLQSIYHLQNLTIEDLGALKIPEQYRMTIWRGLQWLK [D61W] the value was -0.127 ± 0.056; for YHADPSLVSFLTGLGCPNCIEYFTSQGLQSIYHLQNLTIEDLGALKIPEQYRMTIWRGLQELK [D61E], -0.068 ± 0.068.
For YHADPSLVSFLTGLGCPNCIEYFTSQGLQSIYHLQNLTIEDLGALKIPEQYRMTIWRGLQTLK [D61T] the value was -0.003 ± 0.035.
For YHADPSLVSFLTGLGCPNCIEYFTSQGLQSIYHLQNLTIEDLGALKIPEQYRMTIWRGLQYLK [D61Y] the value was -0.157 ± 0.1.
YHADPSLVSFLTGLGCPNCIEYFTSQGLQSIYHLQNLTIEDLGALKIPEQYRMTIWRGLQQLK [D61Q]: the abundance fitness is -0.126 ± 0.053.
Take YHADPSLVSFLTGLGCPNCIEYFTSQGLQSIYHLQNLTIEDLGALKIPEQYRMTIWRGLQKLK [D61K]: the abundance fitness is -0.103 ± 0.047.
For YHADPSLVSFLTGLGCPNCIEYFTSQGLQSIYHLQNLTIEDLGALKIPEQYRMTIWRGLQGLK [D61G] the value was 0.035 ± 0.047.
For YHADPSLVSFLTGLGCPNCIEYFTSQGLQSIYHLQNLTIEDLGALKIPEQYRMTIWRGLQNLK [D61N] the value was -0.046 ± 0.041; for YHADPSLVSFLTGLGCPNCIEYFTSQGLQSIYHLQNLTIEDLGALKIPEQYRMTIWRGLQVLK [D61V], -0.104 ± 0.045; for YHADPSLVSFLTGLGCPNCIEYFTSQGLQSIYHLQNLTIEDLGALKIPEQYRMTIWRGLQPLK [D61P], -0.092 ± 0.051.
Turning to YHADPSLVSFLTGLGCPNCIEYFTSQGLQSIYHLQNLTIEDLGALKIPEQYRMTIWRGLQCLK [D61C], the abundance fitness was -0.245 ± 0.11.
Consider YHADPSLVSFLTGLGCPNCIEYFTSQGLQSIYHLQNLTIEDLGALKIPEQYRMTIWRGLQILK [D61I], for which the abundance fitness is 0.006 ± 0.046.
Regarding YHADPSLVSFLTGLGCPNCIEYFTSQGLQSIYHLQNLTIEDLGALKIPEQYRMTIWRGLQDLG [K63G], the abundance fitness is -0.002 ± 0.075.
Under YHADPSLVSFLTGLGCPNCIEYFTSQGLQSIYHLQNLTIEDLGALKIPEQYRMTIWRGLQDLE [K63E] stands 0.103 ± 0.063; under YHADPSLVSFLTGLGCPNCIEYFTSQGLQSIYHLQNLTIEDLGALKIPEQYRMTIWRGLQDLA [K63A], -0.082 ± 0.16; under YHADPSLVSFLTGLGCPNCIEYFTSQGLQSIYHLQNLTIEDLGALKIPEQYRMTIWRGLQDLC [K63C], -0.239 ± 0.088.

The values above are taken from the Human Domainome abundance scans (Beltran et al. 2025).
